Consider 13 substances from paper PMC2629542.

What is called Kd is the concentration at which binding is half-saturated. A lower Kd goes with a tighter complex.

For the first test, the target named is Dr hemagglutinin (DraE) adhesin, Dr fimbriae (E. coli). Put plainly: SPR.
N-CEA T52N (domain or fragment) registered a Kd of 11 µM.

In turn, “N-domain of CEACAM1 (domain or fragment)” showed a Kd of 15.3 µM. Still for that read-out and setting: to N-CEA F29R (domain or fragment) belongs > 200 µM. Same read-out and setting: to N-CEA S32N (domain or fragment) belongs 12.8 µM; to N-CEA L28P (domain or fragment), 6.6 µM; to N-domain of CEA (domain or fragment), 13.1 µM.

As to N-CEA F9A (domain or fragment), the Kd was 18.4 µM. For the substance “CEA-CEACAM8 chimera (from UniProt P06731 35-92) (domain or fragment)”, the Kd amounted to 14.4 µM. On the same count and under the same terms, to N-CEA D40A (domain or fragment) belongs 48.9 µM; to N-CEA G51D (domain or fragment), 12 µM.

Take N-CEA V39A (domain or fragment): the dissociation constant (Kd) amounted to 9.35 µM. With N-CEA Q44R (domain or fragment), the dissociation constant Kd is > 200 µM.

Substance N-CEA V11A (domain or fragment) registered a dissociation constant Kd of 24.9 µM.

The target is the same in the next test. Put plainly: SPR. This is another data set of the same source. For orientation: In SPR one partner is held on a chip, and binding of the other changes the refractive index at the surface.
N-domain of CEA (domain or fragment) displayed a Kd of 13.1 µM.
